One data set relates to rat MCAO model. Briefly: Therapeutic effect on rat MCAO model (cerebral infarction volume, TTC staining). The data set is classed as in vivo.
The nature of data set [1]: Stability analysis of P5 salt powders (HPLC area normalization). The note with it: powder, 10 days.
Procedure: The three P5 salts in Example 3 in their powder form were subjected to treatments with irradiation (3000 Lx)+ultraviolet (UV), high temperature (60° C.), and high humidity (75% RH) for 10 days. After the treatments, the powders were dissolved in water to prepare a solution at a concentration of 2 mg/ml. 10 μl of each solution was accurately measured and injected into a liquid chromatograph, and the chromatograms were recorded. Relevant substances were calculated according to the area normalization method to analyze the content and the number of impurity species.
(§1) Mobile phase: A 0.065% TFA-water; B 0.05% TFA-ACN
(§2) Detection wavelength λ=220 nm; flow rate V=1.0 ml/min; temperature T=36° C.
Injection volume Inj=10 ul
(§3) Gradient conditions: 0-30 min, B %=5-65%
Data set [2] can be described thus: Stability analysis of P5 salt solutions (HPLC area normalization). As to conditions: aqueous solution 2 mg/ml, irradiation (3000 Lx), 10 days.
Procedure: The solutions were subjected to treatments with irradiation (3000 Lx) and high temperature (60° C.) for 10 days. After the treatments, 10 μl of each solution was accurately measured and injected into a liquid chromatograph, and the chromatograms were recorded. The relevant substances were calculated according to the area normalization method to analyze the content and the number of impurity species.
high performance liquid chromatograph (Agilent, 1260 EZChrom); chromatographic column (Agilent, ZORBAX 300SB-C18 (4.6*250 mm, 5 μm) SN: USHH008416); analytical balance (Sartoris, BT25S); filter membrane (Millipore, 0.45 μm PTFE); acetonitrile (MREDA); water (Aqua); TFA (MREDA); and comprehensive drug stability test box (three-box type) (Shanghai Zuocheng Experimental Instrument Co. Ltd, item no. SHH-3SDT).
as §1, §2
Injection volume Inj=10 μl
as §3
The mark [3] stands for this setting: irradiation (3000 Lx) + ultraviolet.

Ends that are not written are not given here.

On to “P5-TFA: trifluoroacetate salt of chimeric peptide P5 (YGRKKRRQRRRYEKLLDTEI) (also: trifluoroacetate salt)”, for which, in the data set with rat MCAO model (10 mg/kg tail vein injection 1 hour after ischemia, 24 h after administration, p<0.01), the “cerebral infarction volume as compared with the model group” value is “significantly reduced”. Besides, the “effect in reducing cerebral infarction volume as compared with positive control drug NBP” value in the data set on rat MCAO model (10 mg/kg vs NBP 2.5 mg/kg, tail vein injection 1 hour after ischemia, p<0.05) was “significantly superior”. Further, the “Number of impurity species” value in data set [1] (high humidity (75% RH)) is on record as 1; in data set [1] (high temperature (60° C.)), 3; in data set [1] (setting [3]) it was 6; in data set [2] it was 10. Besides, the “Percentage of main peak area” value in data set [1] (high humidity (75% RH)) was found to be 99.73%; in data set [1] (high temperature (60° C.)), 99.56%; in data set [1] (setting [3]), 98.34%; in data set [2], 97.28%.

These data come from US11767344B2, “Pharmaceutically acceptable salts of polypeptides and methods of inhibiting the interaction between psd-95 and n-methyl-d-aspartic acid receptor (nmdar)” (BIOCELLS (BEIJING) BIOTECH CO., LTD., priority 2017, dated 2023).
